Assay results: US20260063625A1, “COMPOSITIONS FOR AND METHODS OF DETECTING FOOD TOXINS” (priority 2022, published 2026)
Numbering of substitutions follows the chain as printed. Numbers in names are those of the source.

Assays:
[1] = Isothermal titration calorimetry (ITC) of STX into Sxph; format: binding; settings: 25° C.
Description: ITC measurements were performed at 25° C. using a MicroCal PEAQ-ITC calorimeter (Malvern Panalytical). […]. This STX stock was diluted with the SEC buffer to prepare 100 μM or 300 μM STX solutions having a final buffer composition of 135 mM NaCl, 9 mM HEPES, pH 7.4. […]. The calorimetric experiment settings were: reference power, 5 μcal/s; spacing between injections, 150 s; stir speed 750 rpm; and feedback mode, high. Data were analyzed using MicroCal PEAQ-ITC Analysis Software (Malvern Panalytical) using a single binding site model. The heat of dilution from titrations of 100 μM STX in 135 mM NaCl, 9 mM HEPES, pH 7.4 into 135 mM NaCl, 9 mM HEPES, pH 7.4 was subtracted from each experiment to correct the baseline.

[2] = format: binding; settings: 1.1 μM Sxph, 0-20 μM STX
[3] = Fluorescence polarization (FP) binding to fluorescein labeled STX; settings: T = 298K; for […]G (kcal mol^−1) relative to RcSxph: […]G = RT ln (Kd(XSxph)/Kd(RcSxph)); for […]G (kcal mol^−1) relative to wild-type RcSxph: […]G = RT ln (KdSxph mutant/KdSxph)
PtNaV1.4 = test: Two-electrode voltage clamp: Sxph rescue of PtNaV1.4 from STX block in Xenopus oocytes; format: cell-based, Phyllobates terribilis; settings: [Sxph]:[STX] ratio, 100 nM STX

B1: NpSxph: Saxiphilin of Nanorana parkeri, High Himalaya frog, SEQ ID NO:2 (protein, listed as Nanorana parkeri)
chain: MALTFHTALYFTIVGLSFAASDARHVQWCTISHLEQKKCNDLVGSCNVPDITLACVYRSSTENCMAAIKDGQADAMFLDSGDVYKASLDHYNLKPIIAEPYSLHRELTKCLKHRQESLGGDKMVKGRYIPQCDEKGNYHPVQCHASTGYCWCVNANGEKIEGTNTTPVQTPPTCPSQVLTKCLKERQEALGGKRIAIGRYIPQCDEQGNYRPMQCHGSTGYCWCVNAIGEKIEGTNTPPGNTQPTCQSHDWDTCHYAVAVVKNSSTFQFGQLKGKRSCHSGLSKTDGWNAPVNVFVEKKLLPWDGLAKGSIERAVSKFFSASCIPGATETNLCKQCIGEEEKKCKSSHDEPYYGDHGAFRCLQEDKGDVAFLKNTALPDEHSGVYELLCPDNTRKPLNKYKECNLGKVPADAVVTRKAGDKTKDINDFLLEAQKKKCKLFGSPHGKDLMFDDSTTHLAPLPSEIDAFFFLGVKWYNAMKALTEDVKLPSKNKVRWCTINKPEMMKCKDWAAVSGGAIACTEASCPEHCVKQILKGEADAVTLDVQYMYMALMCGLLPAVEEYPNKDDFHPCQIPGSTIKDFGTKRAVALVKKSNKDIKWNNLKGKKSCHTHVGDIPGWVIPAGLISNQNDNIDIESFFGESCAPGSDTNSKLCKLCIGDPENPKASTRCSLSDKEAYYGNEGAFRCLVEKGDVAFVPHTVVFANTDGKNPAEWAKDLKSEDFEILCLDGSRAPVTNYRGCNLSGLPPRAIVTREESVSDVVRILINQQSLYGRNGFEKDMFQMFSSAKGQNLLFNDETQCLIEFDRQPKDIMEDYFGVRYYTAVYSASRSAVPSELIPACTFKHC
- […]G [1]: -11.8 ± 0.1 kcal/mol
- […]H (kcal mol^−1), binding enthalpy [1]: -18.7 ± 0.2 kcal/mol
- […]S (cal mol^−1 K^−1) [1]: −23.2 ± 0.8 cal mol^−1 K^−1
- […]H (kcal mol^−1), binding enthalpy ([1]; listed as NpSxph WT): -18.7 ± 0.2 kcal/mol
- DTm ([…]Tm=TmSxph+20 μM toxin−TmSxph), STX [2]: 3.6 °C
- […]G (kcal mol^−1) relative to RcSxph [3]: -1.60 kcal/mol

B2: RcSxph: Saxiphilin of Rana (Lithobates) catesbeianus, American bullfrog, SEQ ID NO:1 (protein)
chain: MAPTFQTALFFTIISLSFAAPNAKQVRWCAISDLEQKKCNDLVGSCNVPDITLVCVLRSSTEDCMTAIKDGQADAMFLDSGEVYEASKDPYNLKPIIAEPYSSNRDLQKCLKERQQALAKKMIGHYIPQCDEKGNYQPQQCHGSTGHCWCVNAMGEKISGTNTPPGQTRATCERHELPKCLKERQVALGGDEKVLGRFVPQCDEKGNYEPQQFHGSTGYSWCVNAIGEEIAGTKTPPGKIPATCQKHDLVTTCHYAVAMVKKSSAFQFNQLKGKRSCHSGVSKTDGWKALVTVLVEKKLLSWDGPAKESIQRAMSKFFSVSCIPGATQTNLCKQCKGEEGKNCKNSHDEPYYGNYGAFRCLKEDMGDVAFLRSTALSDEHSEVYELLCPDNTRKPLNKYKECNLGTVPAGTVVTRKISDKTEDINNFLMEAQKRQCKLFSSAHGKDLMFDDSTLQLALLSSEVDAFLYLGVKLFHAMKALTGDAHLPSKNKVRWCTINKLEKMKCDDWSAVSGGAIACTEASCPKGCVKQILKGEADAVKLEVQYMYEALMCGLLPAVEEYHNKDDFGPCKTPGSPYTDFGTLRAVALVKKSNKDINWNNIKGKKSCHTGVGDIAGWVIPVSLIRRQNDNSDIDSFFGESCAPGSDTKSNLCKLCIGDPKNSAANTKCSLSDKEAYYGNQGAFRCLVEKGDVAFVPHTVVFENTDGKNPAVWAKNLKSEDFELLCLDGSRAPVSNYKSCKLSGIPPPAIVTREESISDVVRIVANQQSLYGRKGFEKDMFQLFSSNKGNNLLFNDNTQCLITFDRQPKDIMEDYFGKPYYTTVYGASRSAMSSELISACTIKHC
- […]G [1]: -12.3 ± 0.5 kcal/mol
- […]H (kcal mol^−1), binding enthalpy [1]: -16.1 ± 0.2 kcal/mol
- […]S (cal mol^−1 K^−1) [1]: −12.7 ± 0.9 cal mol^−1 K^−1
- […]H (kcal mol^−1), binding enthalpy ([1]; listed as RcSxph WT): -16.1 ± 0.2 kcal/mol
- Effective Rescue Ratio50 (ERR50) (PtNaV1.4): 1.07±0.02
- DTm ([…]Tm=TmSxph+20 μM toxin−TmSxph), STX [2]: 3.6 °C
- […]G (kcal mol^−1) relative to RcSxph [3]: 0 kcal/mol
- […]G (kcal mol^−1) relative to wild-type RcSxph [3]: 0 kcal/mol

B3: I782A: RcSxph mutant, alanine for isoleucine at position 782 (protein)
chain: B2 chain with I801A
- Effective Rescue Ratio50 (ERR50) (PtNaV1.4): 0.87±0.02
- DTm ([…]Tm=TmSxph+20 μM toxin−TmSxph), STX [2]: DTm increases relative to wild-type
- […]G (kcal mol^−1) relative to wild-type RcSxph [3]: -0.53 kcal/mol

B4: P727A: RcSxph mutant P727A (protein)
chain: B2 chain with P746A
- […]G [1]: -10.3 ± 0.2 kcal/mol
- […]H (kcal mol^−1), binding enthalpy [1]: -11.5 ± 0.0 kcal/mol
- […]S (cal mol^−1 K^−1) [1]: −4.2 ± 0.9 cal mol^−1 K^−1
- Effective Rescue Ratio50 (ERR50) (PtNaV1.4): > 4
- […]G (kcal mol^−1) relative to wild-type RcSxph [3]: 1.21 kcal/mol

B5: E540A: RcSxph mutant E540A (protein)
chain: B2 chain with E559A
- Effective Rescue Ratio50 (ERR50) (PtNaV1.4): eliminated
- DTm ([…]Tm=TmSxph+20 μM toxin−TmSxph), STX [2]: complete loss of the thermal shift
- […]G (kcal mol^−1) relative to wild-type RcSxph [3]: 4.52 kcal/mol

B6: Y558I: RcSxph mutant, isoleucine for tyrosine at position 558 (protein)
chain: B2 chain with Y577I
- […]G [1]: -12.2 ± 0.3 kcal/mol
- […]H (kcal mol^−1), binding enthalpy [1]: -15.5 ± 0.3 kcal/mol
- […]S (cal mol^−1 K^−1) [1]: −10.5 ± 0.6 cal mol^−1 K^−1
- Effective Rescue Ratio50 (ERR50) (PtNaV1.4): 0.81±0.01
- […]G (kcal mol^−1) relative to wild-type RcSxph [3]: -1.07 kcal/mol
